Results: US20020115592A1, “Pharmaceutical compositions containing insulin” (Provalis UK Limited, priority 1998, published 2002)

Columns and labels:
[1] = Appearance on addition of Akoline to the insulin solution; type: physicochemical; settings: Insulin 7 mg
[2] = Dissolution of insulin (optionally with aprotinin) in non-aqueous hydrophilic solvent/cosolvent; type: physicochemical; settings: Insulin 7 mg
[3] = Gly (20 μl), PEG/L-lactic (20 μl/10 mg)
[4] = Gly (20 μl), PEG/NaAc (20 μl/10 mg)
[5] = Gly (40 μl), Acetic acid (10 mg)
[6] = Gly (40 μl), L-lactic acid (10 mg)
[7] = PD (40 μl), Na-L lactate (10 mg)
[8] = PEG (25 μl), DL-lactic acid (25 μl)
[9] = PEG (50 μl), Glycerol/TEA (50 μl/10 gl)
[10] = PG (40 μl), Acetic acid (10 mg)
[11] = PG (40 μl), Caproic acid (10 mg)
[12] = PG (40 μl), Citric acid (10 mg)

Insulin
Addition of Akoline [1, 3]: Turbid | Addition of Akoline [1, 4]: Clear | Addition of Akoline [1, 5]: Opaque | Addition of Akoline [1, 6]: Turbid | Addition of Akoline ([1]; Gly (40 μl), NaAc (10 mg)): Translucent | Addition of Akoline ([1]; PD (20 μl), benz. SO3H (10 mg)): Clear | Addition of Akoline ([1]; PD (40 μl), L-lactic (10 mg)): Turbid | Addition of Akoline [1, 7]: Clear | Addition of Akoline ([1]; PD (40 μl), NaAc (10 mg)): Clear | Addition of Akoline ([1]; PEG (20 μl), L-lactic (10 mg)): Translucent | Addition of Akoline ([1]; PEG (20 μl), NaAc (10 mg)): Clear | Addition of Akoline [1, 8]: Cloudy | Addition of Akoline ([1]; PEG (25 μl), DL-lactic acid (25 μl), (Akoline/POE)): Suspension | Addition of Akoline ([1]; PEG (40 μl), camitine (10 mg)): Clear solution | Addition of Akoline [1, 9]: Suspension | Addition of Akoline [1, 10]: Translucent | Addition of Akoline [1, 11]: Translucent | Addition of Akoline [1, 12]: Translucent | Soluble? [2, 3]: Yes | Soluble? [2, 4]: Yes | Soluble? [2, 5]: Yes | Soluble? [2, 6]: Yes | Soluble? ([2]; Gly (40 μl), NaAc (10 mg)): Yes | Soluble? ([2]; PD (20 μl), benz. SO3H (10 mg)): Yes | Soluble? ([2]; PD (40 μl), L-lactic (10 mg)): Yes | Soluble? [2, 7]: Yes | Soluble? ([2]; PD (40 μl), NaAc (10 mg)): Yes | Soluble? ([2]; PEG (20 μl), L-lactic (10 mg)): Yes | Soluble? ([2]; PEG (20 μl), NaAc (10 mg)): Yes | Soluble? [2, 8]: Yes | Soluble? ([2]; PEG (25 μl), DL-lactic acid (25 μl), listed as with Akoline/POE): Yes | Soluble? ([2]; PEG (40 μl), camitine (10 mg)): Yes | Soluble? [2, 9]: Yes | Soluble? [2, 10]: Yes | Soluble? [2, 11]: Yes | Soluble? [2, 12]: Yes
